According to patent US20260209316A1 (US Dept. of Health and Human Services, published 2026):
Read-outs that look alike come from different tables or passages of the source.

Tests used:
[1] = target: T1, mucin domain-deleted Sudan GP (GPdMuc) (Sudan virus (SUDV), UniProt Q7T9D9 33-632); experiment: BLI competition on Sudan GPdMuc (upper table); competitor 16F6
T1 construct: also called Sudan GPdMuc; GP(S)dMuc

[2] = target: T1, mucin domain-deleted Sudan GP (GPdMuc); experiment: BLI competition on Sudan GPdMuc (upper table); competitor 15H10
[3] = target: T1, mucin domain-deleted Sudan GP (GPdMuc); experiment: BLI competition on Sudan GPdMuc (upper table); competitor 316L
[4] = target: T1, mucin domain-deleted Sudan GP (GPdMuc); experiment: ELISA on coated GP
[5] = target: T1, mucin domain-deleted Sudan GP (GPdMuc); experiment: BLI competition on Sudan GPdMuc (upper table); competitor mAb166
[6] = target: T1, mucin domain-deleted Sudan GP (GPdMuc); experiment: ELISA on coated GP; remark: listed apart in the source
[7] = target: T1, mucin domain-deleted Sudan GP (GPdMuc); experiment: BLI competition on Sudan GPdMuc (lower table); competitor 15H10
[8] = target: T1, mucin domain-deleted Sudan GP (GPdMuc); experiment: BLI competition on Sudan GPdMuc (lower table); competitor mAb166
[9] = target: T1, mucin domain-deleted Sudan GP (GPdMuc); experiment: BLI competition on Sudan GPdMuc (lower table); competitor 316L
[10] = target: T1, mucin domain-deleted Sudan GP (GPdMuc); experiment: BLI competition on Sudan GPdMuc (lower table); competitor 16F6
[11] = target: T1, mucin domain-deleted Sudan GP (GPdMuc); experiment: BLI competition on Sudan GPdMuc (upper table); competitor mAb166; remark: listed apart in the source
[12] = target: T1, mucin domain-deleted Sudan GP (GPdMuc); experiment: BLI competition on Sudan GPdMuc (upper table); competitor 16F6; remark: listed apart in the source
[13] = target: T1, mucin domain-deleted Sudan GP (GPdMuc); experiment: BLI competition on Sudan GPdMuc (upper table); competitor 316L; remark: listed apart in the source
[14] = target: T1, mucin domain-deleted Sudan GP (GPdMuc); experiment: BLI competition on Sudan GPdMuc (upper table); competitor 15H10; remark: listed apart in the source

B1: antibody 528S (antibody, V domains shown)
VH: EVQLAESGGGVVQPGRSLRLSCAASGFTFNSYGMHWVRQAPGKGLEWVAVIWDDGSKKYYADSVKGRFTISRDNSKNTLFLQMNSLRAEDTAVYYCARETIMFTFGEVIVSSRDNYYMDVWGKGTTVTVSS
VL: EIVLTQSPATLSLSPGERATLSCRASQSVSNYLAWYQQKPGQAPRLLIYDASTRAIGIPARFSGVGSGTDFTLTISSLEPEDFAVYYCQQRSNWPPLTFGGGTKVEIK
% inhibition of binding [1]: 13.2%
% inhibition of binding [2]: 14.7%
% inhibition of binding [3]: 8.13%
EC50 [4]: 0.03 µg/mL
% inhibition of binding [5]: 82%

B2: antibody 338S (antibody, V domains shown)
VH: EVQLVESGGGVVQPGRSLRLSCAASGFTFSQYGMHWVRQAPGKGLECVAVIWFDGSKKYYGDSVKGRFTISRDNSKNTLYLQMNSLRAEDTAVYFCARESLYYYDSGGHYYERGRIDYWGQGTLVTVSS
VL: DIQMTQSPSSLSASVGDRVTITCRASQDISNFLAWFQQKPGKAPKSLIYAASSLLSGVPSKFSGSGSGTDFTLTISSLQPEDFATYYCQQYNSYPPTFGQGTKLEIK
% inhibition of binding [1]: 3.74%
% inhibition of binding [2]: 4.35%
% inhibition of binding [3]: 0.2%
EC50 [4]: 0.02 µg/mL
% inhibition of binding [5]: -6.27%

B3: antibody 354S (antibody, V domains shown)
VH: QVQLVQSGAEVKKPGASVKVSCKASGYSFASYYIHWVRQAPGQGLEWMGIINPSGGTTSYAQKFQGRVTMTRDTSTSTVYMELSSLGSEDTAVYYCARIVDRVTIYLNGVDNYWGQGTLVTVSS
VL: EIVMTQSPATLSVSPGERVTLSCRASQSVSSNLAWFQQTPGQAPRLLIYGASTRASGVPARFSGSGSGTEFTLTISSLQSEDFAVYYCLQYNNWPPGWKYGFGQGTKLEIK
EC50 [6]: 0.0404 µg/mL
% inhibition of binding [7]: 18.9%
% inhibition of binding [8]: 16.2%
% inhibition of binding [9]: 17.9%
% inhibition of binding [10]: 18.7%

B4: antibody 294S (antibody, V domains shown)
VH: QVQLQESGPGLVKPSQTLSLTCTVSGGSISSGGYHWSWIRQHPGKGLEWIGNIYYNGRTYYNPSLKSRVTISVDTSENEFSLKLSSVTAADTAVYYCARDRRRPRIGHDYGMDVWGQGTKVIVSS
VL: DIQMTQSPSSLSASVGDRVTISCRASQSISNFLNWYQQKPGQAPKLLIYTASNLQSGVPSRFSGSGSGTDFTLTISSLQPEDFATYYCQQIYNTGMYSFGQGTKLEIKR
EC50 [6]: 0.0266 µg/mL
% inhibition of binding [7]: 15.7%
% inhibition of binding [8]: 9.71%
% inhibition of binding [9]: 8.76%
% inhibition of binding [10]: 13.3%

B5: antibody 233S (antibody, V domains shown)
VH: EVQLVESGGGLGQPGGSLRLSCAASGFKFKIFGMNWVRQAPGKGLEWVSYISSRSSIIYYADSVKGRFTISRDDATNSLFLQMNSLRDEDTAMYYCVRDYNLIDFVWGSLFDYWGQGILVTVSS
VL: AIRMTQSPSSLSASTGDSVTITCRASQNIASYLAWYQQIPGKAPKLLIYVASTLQSGVPSRFSGSGSGTDFTLTISSLQSEDFATYYCQQYYRYPPTFGQGTKVEIK
EC50 [6]: 0.195 µg/mL
% inhibition of binding [7]: 29.6%
% inhibition of binding [8]: 14.4%
% inhibition of binding [9]: 12.5%
% inhibition of binding [10]: 22.9%

B6: antibody 503S (antibody, V domains shown)
VH: QVQLVQSGAEVKKPGASVRVSCKASGYTFTSYYMHWVRQAPGQGLEWMGQINPSGGTTRYERKFQGRITVTRDTSTSTVYLELSSLRSEDTASYFCACLRDKVTYYDLWSGVDSVWGQGTLVTVSS
VL: DIQMTQSPSSLSASVGDRVTITCRASQDISTWLAWYQQKPEKAPKSLIYAASTLETGVPSRFSGSGSGTDFTLTISSLQPEDFATYYCEQYNGFPRTFGQGTKLDIK
EC50 [6]: 0.499 µg/mL
% inhibition of binding [7]: 27.8%
% inhibition of binding [8]: 20.7%
% inhibition of binding [9]: 23.3%
% inhibition of binding [10]: 24.9%

B7: antibody 241S (antibody, V domains shown)
VH: QVQLVQSGSELKKPGASVKVSCKASGYTFTSYTVNWVRQAPGQGLEWMGWINTNTGNPTYAQGFTGRFVFSSDTSVSTAYLQISDLKAEDTAMYYCARHVAYDLWSGHTVTFDHWGQGTLVTVSS
VL: QSALTQPPSASGSPGQSVTISCTGTSSDVGAYNYVSWYQQHPGKAPKLIIYEVTKRPSGVPDRFSGSKSGNTASLTVSGLQAEDEADYYCSSKAGGKTYVFGTGTKVTVL
EC50 [6]: 0.331 µg/mL
% inhibition of binding [7]: 38.3%
% inhibition of binding [8]: 10.1%
% inhibition of binding [9]: 10.3%
% inhibition of binding [10]: 28.2%

B8: antibody 315S (antibody, V domains shown)
VH: EVQLVESGGGVVQPGRSLRLSCAASGFTFKTYTMHWVRQAPGKGLEWVAVITDDGVNKKYADSVKGRFTISRDNSKNTLYLQMNSLRLEDTAVYYCARSVVVLAAYPLDYWGQGTMVTVSS
VL: DIQMTQSPSSLSASVGDRVTITCRASQTISTYLHWYQQRPGKAPKLLIYAASSLQSGVPSRVSGSGSGTDFTLTITSLQPEDFATYYCLQTYSLPLTFGGGTNVEIK
% inhibition of binding [1]: 17.9%
% inhibition of binding [2]: 6.61%
% inhibition of binding [3]: 0.7%
EC50 [4]: 0.01 µg/mL
% inhibition of binding [5]: -2.64%

B9: antibody 377S (antibody, V domains shown)
VH: QVQLVQSGAEVKKPGSSVKVSCKASGGTFSNYAINWVRQAPGQGLEWMGRTIPFLGLTNYAENFQARVTITADKSTGTSYMQLSSLRSEDTAVYFCAKAATSGWSPFDNWGQGTLVTVSS
VL: EIVLTQSPGTLSLSPGERATLSCRASQSISSSYFGWYQQKPGQAPRLLIYGASRRAAGIPDRFSCSGSGTDFTLTISRLEPEDFGVYYCQQYGSSPTFGQGTKVEIK
% inhibition of binding [1]: 9.63%
% inhibition of binding [2]: 12.1%
% inhibition of binding [3]: 39.4%
EC50 [4]: 0.86 µg/mL
% inhibition of binding [5]: 83.8%

B10: antibody 203S (antibody, V domains shown)
VH: QVQLVQSGAEVKKPGSSVKVSCKASGGTFSSYAISWVRQAPGQGLEWLGRILPALGLANYAQKYQDRVKITADKSTSTAYMELSRLGSEDTAVYYCARDRWVGAARRGQYFDYWGQGTQVTVSS
VL: DIQMTQSPATLSASVGDRVTITCRASQSIGTWLAWYQQKPGKAPKLLIYDASSLESGVPPRFSGSGSETEFTLTISSLQPDDFATYYCHQYKSYSYTFGQGTKLEIK
% inhibition of binding [1]: 10.8%
% inhibition of binding [2]: 13.4%
% inhibition of binding [3]: 10.3%
EC50 [4]: 0.57 µg/mL
% inhibition of binding [5]: 87.5%

B11: antibody 523S (antibody, V domains shown)
VH: QVQLVQSGAELKKPGASVKVSCKASGYTFSDHYVHWVRQAPGQGLEWMGRINPNSGGTNYAQRFLGRVTMTRDASISTAYLDLSSLRSDDTAVYYCARSSSSWSGHYYYYMDVWGKGTTVTVSS
VL: QSVLTQPPSVSAAPGQRVTISCSGSTSNIASNFVSWYQQLPGTAPKLLIYDNHKRPSGIPDRFSGSKSGTSATLGITGLQTGDEADYYCGTWDSSLSAGVFGGGTKVTVLG
EC50 [6]: 0.378 µg/mL
% inhibition of binding [11]: 5.74%
% inhibition of binding [12]: 90.8%
% inhibition of binding [13]: 9.35%
% inhibition of binding [14]: 17.4%

B12: antibody 573S (antibody, V domains shown)
VH: EVQLVESGGGLVKPGGSLRLSCAASGFTFSSYTMNWVRQAPGKGLEWVSCIRSSSSDKYYADSVKGRFTISRDNTKNSLYLQMNSLRADDTAVYYCARDLGGANNRYYFDYGMDVWGQGTTVTVSS
VL: EIVMTQSPATLSVSPGGRATLSCRASQSVYTNLAWYQQKPGQAPRLLIYDASTRATGIPARFSGSGSGTEFTLTISSLQCEDFAVYYCQHYNNWPLYTFGQGTKLEIK
EC50 [6]: 0.101 µg/mL
% inhibition of binding [11]: 8.08%
% inhibition of binding [12]: 76.2%
% inhibition of binding [13]: 6.38%
% inhibition of binding [14]: 15.8%

B13: antibody 541S (antibody, V domains shown)
VH: QVQLVQSGAEVKKPGASVKVSCKASGYTFTNYAITWVRQAPGQGLEWMGWISAFNGQINYAQKFQGRVAMTTDTSTSTAYMELRSLRSDDTAVYYCARAPPMWFSGAKFDYWGQGTLVTVSS
VL: QSVLTQPPSVSGTPGQRVTISCSGSSSNIGSNTVNWYQQLPGTAPKLLIYSNDQRPSGVPDRFSGSKSGTSASLAISGLRSEDEADYYCAAWDETLRRVFGGGTRLTVL
EC50 [6]: 0.23 µg/mL
% inhibition of binding [11]: 15.7%
% inhibition of binding [12]: 72.1%
% inhibition of binding [13]: 16.2%
% inhibition of binding [14]: 18.6%
